# Reference: patent publication US9156883B2, “Binding molecules for human factor VIII and factor VIII-like proteins” (DYAX CORP., priority 1999, dated 2015)
# No end group written: not given here.
# How the values were obtained:
# [1] = target: T1, REFACTO® (factor VIII-like polypeptide, amino acids 1-743 and 1638 through 2332 of human factor VIII) (Homo sapiens, UniProt P00451); assay: Phage ELISA of third-round isolates for binding to the factor VIII target; conditions: HRP anti-M13, TMB, absorbance at OD630
# T1 construct: amino acids 1-743 and 1638 through 2332 of human factor VIII; purchased Genetics Institute, Inc. (Cambridge, Mass.)
# T1 sequence (P00451 20-762): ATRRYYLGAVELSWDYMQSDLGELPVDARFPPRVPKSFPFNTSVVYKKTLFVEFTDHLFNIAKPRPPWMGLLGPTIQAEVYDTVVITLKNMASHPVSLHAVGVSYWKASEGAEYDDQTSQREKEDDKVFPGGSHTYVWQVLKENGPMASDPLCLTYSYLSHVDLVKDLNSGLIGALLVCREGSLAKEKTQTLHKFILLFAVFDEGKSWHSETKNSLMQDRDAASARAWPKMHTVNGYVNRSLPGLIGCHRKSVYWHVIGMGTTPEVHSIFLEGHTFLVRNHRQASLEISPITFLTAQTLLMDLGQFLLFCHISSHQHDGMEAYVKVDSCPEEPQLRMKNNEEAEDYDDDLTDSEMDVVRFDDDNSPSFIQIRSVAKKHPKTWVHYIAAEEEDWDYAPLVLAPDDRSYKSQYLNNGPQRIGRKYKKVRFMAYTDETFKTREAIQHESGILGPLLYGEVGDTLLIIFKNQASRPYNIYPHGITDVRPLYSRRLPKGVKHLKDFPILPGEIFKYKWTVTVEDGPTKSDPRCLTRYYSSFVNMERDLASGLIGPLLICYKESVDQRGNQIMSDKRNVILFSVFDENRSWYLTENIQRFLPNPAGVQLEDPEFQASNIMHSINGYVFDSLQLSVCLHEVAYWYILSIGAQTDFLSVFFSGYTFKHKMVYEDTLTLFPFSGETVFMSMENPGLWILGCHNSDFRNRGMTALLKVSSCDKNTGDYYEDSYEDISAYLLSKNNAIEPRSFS
# T1 sequence (P00451 1657-2351): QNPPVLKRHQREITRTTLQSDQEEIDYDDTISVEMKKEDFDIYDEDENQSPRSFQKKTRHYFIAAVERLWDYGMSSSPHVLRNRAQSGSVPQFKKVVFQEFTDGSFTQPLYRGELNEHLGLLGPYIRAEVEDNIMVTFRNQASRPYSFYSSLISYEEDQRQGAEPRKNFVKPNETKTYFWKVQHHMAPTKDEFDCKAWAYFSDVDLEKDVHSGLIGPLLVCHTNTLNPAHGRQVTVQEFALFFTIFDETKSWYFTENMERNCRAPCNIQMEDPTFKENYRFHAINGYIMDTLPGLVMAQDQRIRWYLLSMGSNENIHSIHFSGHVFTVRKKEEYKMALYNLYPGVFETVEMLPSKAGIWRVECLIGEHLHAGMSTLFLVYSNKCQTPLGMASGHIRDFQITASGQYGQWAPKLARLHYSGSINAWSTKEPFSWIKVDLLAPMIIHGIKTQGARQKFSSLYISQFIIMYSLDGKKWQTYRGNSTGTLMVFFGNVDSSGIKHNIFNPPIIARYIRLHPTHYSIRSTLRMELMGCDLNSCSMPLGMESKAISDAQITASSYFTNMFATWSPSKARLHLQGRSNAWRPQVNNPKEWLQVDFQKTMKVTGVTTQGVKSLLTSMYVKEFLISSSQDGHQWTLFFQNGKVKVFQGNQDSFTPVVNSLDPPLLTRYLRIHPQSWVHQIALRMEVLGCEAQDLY
# Text: The techniques described above were employed to isolate high affinity binding molecules for ligands for recombinantly produced factor VIII-like polypeptide consisting of two segments of human factor VIII, i.e., amino acids 1-743 and 1638 through 2332 of human factor VIII, as described in U.S. Pat. No. 5,661,008 (Almstedt et al.), obtained under the commercial designation of REFACTO® from Genetics Institute, Inc. (Cambridge, Mass.). The REFACTO® target was provided at a concentration of about 530 μg/ml (7800 IU/ml) in 19.4 mM His, 300 mM NaCl, 3.4 mM CaCl2 and 0.1% Tween 80, pH 7.0.
# Three libraries, designated TN7 (5×10^9 amino acid sequence diversity), TN8 (6×10^9 amino acid sequence diversity), and TN9 (5×10^9 amino acid sequence diversity), were constructed for expression of diversified polypeptides on M13 phage. Each library was screened for binders to purified REFACTO®. Each of the libraries was constructed to display a microprotein based on an 11- or 12-amino acid template. The TN7 library utilized a template sequence of Xaa-Xaa-Cys-Xaa-Xaa-Xaa-Xaa-Xaa-Cys-Xaa-Xaa; the TN8 library utilized a template sequence of Xaa-Xaa-Cys-Xaa-Xaa-Xaa-Xaa-Xaa-Xaa-Cys-Xaa-Xaa; the TN9 library utilized a template sequence of Xaa-Cys-Xaa-Xaa-Xaa-Xaa-Xaa-Xaa-Xaa-Cys-Xaa.
# (§1) Three rounds of screenings were carried out for each library. At the conclusion of the third round of screening eluted phage were propagated, and individual isolates from each library (96 per elution condition) were selected randomly and tested by standard ELISA techniques for binding to the factor VIII target. Bound phage were detected with HRP conjugated anti-M13 polyclonal antibody (Pharmacia). TMB Peroxidase substrate was used for HRP in the ELISA detection mechanism. TMB substrate produces a blue color after peroxidase digestion. The color is quantitated by absorbance at OD630. Phage isolates that provided a significant signal (OD630>0.25) above background were considered positive clones.
# Sequence data from the phage isolates were grouped by library and sorted according to the degree of similarity. The frequency at which any given sequence was obtained was noted since this indicates selection for a specific binder.
# [2] = target: T2, factor VIII target (Homo sapiens, UniProt P00451); assay: Phage ELISA of high scoring isolates from rounds 2 and 3, with versus without target; assay type: binding; conditions: phage isolates from rounds 2 and 3
# T2 construct: amino acids 1-743 and 1638 through 2332 of human factor VIII; purchased Genetics Institute, Inc. (Cambridge, Mass.)
# T2 sequence (P00451 20-762): T1 sequence (P00451 20-762)
# T2 sequence (P00451 1657-2351): T1 sequence (P00451 1657-2351)
# Protocol: During analysis of the specific polypeptides of the invention, three libraries were isolated and screened. […] These libraries were designated TN7/1, TN8/6 anf TN9/1. In addition, important consensus sequences were determined.
# as §1, with “clones. […]” for “clones.”
Substance,"R, ratio of the ELISA score with target present to the ELISA score without target [2]",further results
03 (FCWVFNFSHCS; Selected Phage Display Sequence) [compound 03],–,ELISA signal ([1]; TN9 library phage isolates): 1.1
05 (RGCGSWLRPCLD; Selected Phage Display Sequence) [compound 05],–,ELISA signal ([1]; TN8 library phage isolates): 0.2
06 (FCWVFPFHHCF; Selected Phage Display Sequence) [compound 06],–,ELISA signal ([1]; TN9 library phage isolates): 0.3
07 (HACGSWFRPCHA; Selected Phage Display Sequence) [compound 07],–,ELISA signal ([1]; TN8 library phage isolates): 0.4
08 (HPCGAWLRPCYN; Selected Phage Display Sequence) [compound 08],–,ELISA signal ([1]; TN8 library phage isolates): 1.0
09 (FCWVFPFQHCA; Selected Phage Display Sequence) [compound 09],–,ELISA signal ([1]; TN9 library phage isolates): 1.1
10 (HPCGSWLRPCLH; Selected Phage Display Sequence) [compound 10],–,ELISA signal ([1]; TN8 library phage isolates): 1.0
11 (FCHVFPFLHCD; Selected Phage Display Sequence) [compound 11],–,ELISA signal ([1]; TN9 library phage isolates): 0.2
11/G10 (HRCGSWLHPCLA; Selected Phage Display Sequence),–,ELISA signal ([1]; TN8 library phage isolates): 0.3
A06 (HSCGSWLFPCFA; Selected Phage Display Sequence),–,ELISA signal ([1]; TN7 library phage isolates): 0.5
A08 (FGCSWLFPCPF; Selected Phage Display Sequence),–,ELISA signal ([1]; TN7 library phage isolates): 0.4
A09 (FHCIGVWFCLH; Selected Phage Display Sequence),–,ELISA signal ([1]; TN7 library phage isolates): 0.1
C5/G10 (RLCSWVSPCSA; Selected Phage Display Sequence),–,ELISA signal ([1]; TN7 library phage isolates): 0.5
D03 (PHCNWLFPCSL; Selected Phage Display Sequence),–,ELISA signal ([1]; TN7 library phage isolates): 0.2
FCHVFNFVHCS (cysteine pairing not given here) [TN9 isolate 01],8,–
FCWVFAFDHCH (Selected Phage Display Sequence) [Phe-Cys-Trp-Val-Phe-Ala-Phe-Asp-His-Cys-His],24,–
FCWVFNFSHCS (cysteine pairing not given here) [TN9 isolate 03],24,–
FCWVFNWVHCD (Selected Phage Display Sequence) [Phe-Cys-Trp-Val-Phe-Asn-Trp-Val-His-Cys-Asp],14,–

Substance,"R, ratio of the ELISA score with target present to the ELISA score without target [2]",further results
FCWVFPFHHCF (cysteine pairing not given here) [TN9 isolate 06],6,–
FCWVFPFNHCD (cysteine pairing not given here) [TN9 isolate 02],8,–
FCWVFPFNHCS (cysteine pairing not given here) [TN9 isolate 12],18,–
FCWVFPFQHCA (cysteine pairing not given here) [TN9 isolate 09],24,–
FCWVFQFRHCH (Selected Phage Display Sequence) [Phe-Cys-Trp-Val-Phe-Q-Phe-Arg-His-Cys-His],8,–
FGCSWLFPCPF (cysteine pairing not given here) [TN7 isolate A08],8,–
HACGSWFRPCHA (cysteine pairing not given here) [TN8 isolate 07],6,–
HLCFAWFRPCDA (cysteine pairing not given here) [TN8 isolate 12],8,–
HLCGAWFRPCDA (cysteine pairing not given here) [TN8 isolate 02],6,–
HPCGAWLRPCYN (cysteine pairing not given here) [TN8 isolate 08],20,–
HPCGSWFNPCAH (cysteine pairing not given here) [TN8 isolate 02],8,–
HPCGSWFRPCFH (cysteine pairing not given here) [TN8 isolate 02],16,–
HPCGSWLHPCAA (cysteine pairing not given here) [TN8 isolate 04],6,–
HPCGSWLRPCLH (cysteine pairing not given here) [TN8 isolate 10],16,–
HRCGSWLHPCLA (cysteine pairing not given here) [TN8 isolate 11/G10],6,–
HSCGSWLFPCFA (cysteine pairing not given here) [TN7 isolate A06],10,–
RLCSWISPCSA (cysteine pairing not given here) [TN7 isolate D04],6,–
RLCSWVSPCSA (cysteine pairing not given here) [TN7 isolate C5/G10],10,–
